Values of other authors in PMC12442452.
Where two headings read alike, the source gives them in different places.

Assays:
[1] = molecular target: T1, Cys25 (UniProt position 147, GQCGSCWAFSA); experiment: kinetics; settings: apo (free) enzyme
[2] = molecular target: His162 (UniProt position 284, SEQLDHGVLLV); experiment: kinetics; settings: apo (free) enzyme
[3] = molecular target: T1, Cys25; settings: ligand-free cruzain
[4] = molecular target: Cys25 (UniProt position 158, GSCGSCWAFSA); settings: not stated (apo enzyme implied)

For “Cruzain (cruzipain, major cysteine protease) (Trypanosoma cruzi)”, the pKa [1] is listed as 9.7, the pKa [2] is listed as 6.6 and the pKa [3] is listed as 9.8.

In the case of “Papain (Carica papaya (inferred; not stated in the article))”, the pKa [4] is listed as 3.3.
